{"source": "patent US20240358739A1", "about": "“COMPOSITION AND METHOD TO TREAT CACHEXIA” (THE TRUSTEES OF INDIANA UNIVERSITY, priority 2021, published 2024)", "molecules": {"B1": {"name": "recombinant IGFBP1: recombinant insulin-like growth factor binding protein 1 (protein)", "chain": "APQPWHCAPCTAERLGLCPPVPASCPEISRPAGCGCCPTCALPMGAACGVATARCAQGLSCRALPGEPRPLHALTRGQGACVPEPAAPATSTLFSSQHEEAKAAVVSADELSESPEMTEEQLLDSFHLMAPSREDQPILWNAISTYSSMRAREIADLKKWKEPCQRELYKVLERLAAAQQKAGDEIYKFYLPNCNKNGFYHSKQCETSLDGEAGLCWCVYPWSGKKIPGSLETRGDPNCHQYFNVHN"}}, "key": {"[1]": {"system": "osteoclast precursor cells", "assay": "Osteoclast differentiation assay, pre-osteoclast cultures exposed to rmIGFBP1, TRAP stain", "format": "cell-based, mice", "conditions": "50 ng/mL recombinant IGFBP1, 48 h", "method": "The quantification of osteoclast differentiation in pre-osteoclast cultures exposed to rmIGFBP1 and stained for TRAP (n=5) is shown in FIG. 6. Furthermore, quantification of osteoclast differentiation in pre-osteoclasts co-cultured with AML12 previously exposed to CRC and treated with anti-IGFBP1 antibody (n=5) is shown in FIG. 7. The osteoclast differentiation assay was conducted as follows:\nBone marrow cells were isolated from at least two 4-month-old wild-type male C57BL/6 mice by flushing the bone marrow out from both tibiae and femora with 10% FBS and 1% P/S-α-MEM. Cells were cultured for 48 h. Non-adherent cells were then collected and 14×10^4 cells/cm2 were seeded on 96-well plates and cultured with RANKL 80 ng/ml (PeproTech) and M-CSF 20 ng/ml (PeproTech) added to induce osteoclast differentiation, the media was changed every 2 days. After 3 days of differentiation, 50 ng/mL of recombinant IGFBP1 or Vehicle (Control) was added to the osteoclast differentiation media for 48 h, after which cells were fixed for staining. […] Images were acquired using Axio Observer. Z1 motorized microscope (Zeiss, Oberkochen, Germany)."}, "C2C12 myotubes": {"system": "C2C12 myotubes", "assay": "C2C12 myotube size after exposure to recombinant IGFBP1", "format": "cell-based", "conditions": "recombinant IGFBP1 100 ng/ml, 48 hours", "method": "(§1) C2C12 myotubes were produced by exposing fully confluent myoblasts to DMEM containing 2% horse serum, 2 mM L-glutamine and 1% P/S, replacing the media every other day for 5 days. At 5 days post differentiation, myotubes were exposed to recombinant IGFBP1 (100 ng/ml) or empty vehicle control for 48 hours. FIG. 9 presents the results.\nFor myotube size: Differentiated C2C12 myotubes were fixed in ice-cold acetone: methanol for ten minutes, blocked for 1 h at room temperature and incubated overnight at 4° C. with an anti-myosin heavy chain antibody (MF-20, 1:100, Developmental Studies Hybridoma Bank). The following day, myotubes were incubated for 1 h at room temperature with an AlexaFluor 594-labeled secondary antibody (A11032, 1:500; Invitrogen). Myotubes were observed under an Axio Observer.Z1 motorized microscope (Zeiss) and analysis was performed by measuring the diameter of the narrowest portion along the multi-nucleate fibers (n=600 fibers per condition) using ImageJ software."}, "HSMM myotubes": {"system": "HSMM myotubes", "assay": "HSMM myotube atrophy after recombinant IGFBP1", "format": "cell-based, human"}, "ITGB1 signaling": {"system": "ITGB1 signaling", "assay": "Western blotting of ITGB1 signaling in myotubes exposed to recombinant IGFBP1", "format": "cell-based", "method": "as §1\nFor western blots (FIG. 9): Cell layer protein extracts were obtained by homogenizing entire well surface in ice-cold RIPA buffer [150 mM NaCl, 1.0% NP-40, 0.5% sodium deoxycholate, 0.1% SDS and 50 mM Tris (pH 8.0)] supplemented with inhibitor cocktails for proteases (11697498001, Roche) and phosphatases (78428, Thermo Fisher Scientific). Following a 10-min incubation on ice, cellular debris was removed by centrifugation (15 min, 14,000 g at 4° C.), the supernatant was collected and protein concentration was assessed using the BCA protein assay method (Thermo Fisher Scientific). Protein extracts (30 μg) were electrophoresed in 4-15% gradient SDS Criterion TGX precast gels (Bio-Rad) and transferred to nitrocellulose membranes (30 min at 100 V; Bio-Rad). […] Blots were again serially washed using PBST and then visualized and quantified using the Odyssey Infrared Imaging System (LI-COR Biosciences). […]"}}}
{"molecule": "B1", "values": [{"measurement": "differentiation of osteoclast precursor cells", "setting": "[1]", "result": "sufficient to promote differentiation"}, {"measurement": "differentiation of osteoclast precursor cells", "setting": "[1]; listed as Recombinant IGFBP1", "result": "promoted"}, {"measurement": "atrophy of C2C12 myotubes", "setting": "C2C12 myotubes", "result": "promoting atrophy"}, {"measurement": "atrophy of C2C12 myotubes", "setting": "C2C12 myotubes; listed as Recombinant IGFBP1", "result": "promoted"}, {"measurement": "atrophy of HSMM myotubes", "setting": "HSMM myotubes", "result": "promoting atrophy"}, {"measurement": "ERK phosphorylation", "setting": "ITGB1 signaling", "result": "increased"}, {"measurement": "FAK phosphorylation", "setting": "ITGB1 signaling", "result": "increased"}]}
